# From the supplement of paper PMC10126150
# ± gives the standard deviation of the averaged measurements.
# Tested on: ATP
# Experiment: switch fluorescence ratio, 500 uM ATP over buffer (Cy3 cluster intensity, sum of 5 cycles each) (fold (ratio)); higher = stronger signal-on switching upon ATP binding; sequences stand for … in TCGTCGGCAGCGTCAGATGTGTATAAGAGACAGTTTTTTTTTTTTTTTTTTTTTTTTT…TC
# Details: aptamer strand: ATP DNA aptamer (quencher-CACCTGGGGGAGTATTGCGGAGGAAGG + anchor), 100 nM annealed; ATP concentration: 500 uM
# In short: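 Clusters carrying Cy3-labelled switching strands on a modified Illumina MiSeq flow-cell were annealed to 100 nM quencher-labelled ATP aptamer and imaged in selection buffer. They were imaged again after 15 min with 500 uM ATP at 22 °C, over five buffer/ATP cycles with NaOH stripping and re-annealing in between. For each cluster, the fluorescence ratio is the summed Cy3 intensity of the target cycles divided by that of the buffer cycles, averaged per switch-domain sequence. Clusters outside 100-1000 RFU were left out.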
# 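Also: ATP exposure 15 min at 22 °C before imaging.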
row,Sequence,switch fluorescence ratio
1,TGTTAGTCTG,1.03 ± 0.032
2,TCATTCGTCC,1.099 ± 0.0056
3,TTGGGGCTTG,0.998 ± 0.012
4,TTTCTAGAGA,1 ± 0.021
5,AGGAGGTGTC,1.06 ± 0.11
6,GCATCATATG,0.998 ± 0.028
7,TTTAAAAAAC,1 ± 0.026
8,GTTGGTGACG,1.048 ± 0.0055
9,GGTTATAAGT,0.975 ± 0.034
10,TGGGGTGTTG,0.983 ± 0.011
11,TAGTTACGGT,1.05 ± 0.064
12,GGACCAGGGT,1.04 ± 0.0071
13,CTCAGGATGT,1.06 ± 0.026
14,CCAGGTCGAC,1.02 ± 0.063
15,GTTGCTTTGG,1.04 ± 0.017
16,ATGGGCAGCT,1.02 ± 0.011
17,TATTGTGTAA,1 ± 0.023
18,GTATTAGGAA,0.985 ± 0.031
19,AACTCGGAAT,1.03 ± 0.028
20,CATGACGAAT,1.03 ± 0.026
21,GAAGTAGCCT,0.9985 ± 0.0086
22,ATGCATGAAA,1 ± 0.017
23,TTGAAGCTGG,0.9746 ± 0.0088

row,Sequence,switch fluorescence ratio
1,TTTCATACGT,1.02 ± 0.05
2,TGGGTAGGAT,1.02 ± 0.018
3,GGGTTGTGGT,1.01 ± 0.026
4,TCCACTCTTC,0.991 ± 0.024
5,AAGATCTTAT,1.01 ± 0.031
6,AGGGAGTTGC,1.03 ± 0.038
7,TTTAGGCAT,0.986 ± 0.028
8,ATGTTAGGGG,0.981 ± 0.041
9,CAGTTAAAAA,1.03 ± 0.012
10,CAGTAGGCAG,0.95 ± 0.016
11,TAGTGAAGTC,1.02 ± 0.073
12,AAGGGACAGT,1.03 ± 0.016
13,CCGTTAGAGG,1.01 ± 0.038
14,TCTGGTTAGC,1.03 ± 0.026
15,ACATACGCAA,4.63 ± 0.56
16,GGTGCGGTCG,0.9824 ± 0.0053
17,TTTAGTGCCT,1.04 ± 0.012
18,GAAAGGGATT,1 ± 0.048
19,GCGGCAGGGA,0.997 ± 0.049
20,GCAGTGTCCA,1.01 ± 0.032
21,GTTTAAACGC,1.01 ± 0.026
22,GTTAGAGGGT,1.01 ± 0.021
23,CAGGGATGGA,0.981 ± 0.013

row,Sequence,switch fluorescence ratio
1,TGGTGGGAAT,1.02 ± 0.011
2,CGCTGCTAAT,1.58 ± 0.08
3,AAGTGTTAG,0.966 ± 0.011
4,TCATAAAGGG,1.03 ± 0.0064
5,ATCCGAAGAT,1.04 ± 0.016
6,GGGACGGCTC,0.993 ± 0.049
7,TTTGAATTTA,1 ± 0.039
8,GCTGAGGATA,0.984 ± 0.013
9,CAGGGTGGGG,1.03 ± 0.048
10,TAGTTGGGCA,0.987 ± 0.026
11,GCGCTTAAAT,1.03 ± 0.057
12,GGTTGGGGAG,0.985 ± 0.019
13,GAGTATAATA,0.997 ± 0.025
14,AAGGTTCTTT,0.988 ± 0.022
15,AAGGTAACGG,0.972 ± 0.038
16,AAAACAAGGG,1.01 ± 0.012
17,TCTGCATGTT,1.02 ± 0.012
18,TGGTGCAGGC,0.702 ± 0.023
19,TCCAAGTCCC,1.018 ± 0.0088
20,TCGAGAAGGT,0.993 ± 0.054
21,TCGGATTAAT,1.05 ± 0.043
22,GTCGGGTTTG,0.991 ± 0.014
23,TTTTTGAATC,0.983 ± 0.017

row,Sequence,switch fluorescence ratio
1,CTTTGGCAGA,1.03 ± 0.043
2,TGTAGGTAAA,0.997 ± 0.029
3,GGGGTTTCGT,1.01 ± 0.067
4,TTTCCAGGG,1.17 ± 0.031
5,GTTTTTGCTT,1.01 ± 0.032
6,TGCTAGCTAT,1.02 ± 0.0029
7,AGTAATAGGA,1.03 ± 0.076
8,TATCGAAGGC,0.982 ± 0.022
9,TGTGGTGGTG,0.978 ± 0.049
10,GGTAATGCTT,1 ± 0.05
11,AAAGCCACGC,1.11 ± 0.032
12,ATTAATAGCA,0.9745 ± 0.0089
13,GAACCTTCGT,1.05 ± 0.096
14,TTATTGTGTA,0.979 ± 0.025
15,GGTGTTTAAG,0.9717 ± 0.0067
16,CTGGTGTCAC,1.01 ± 0.029
17,CGACTATAGG,1 ± 0.023
18,TAATGCTTTT,0.978 ± 0.03
19,AGATGGGGGT,1.016 ± 0.0053
20,TGCGAGGCGT,0.997 ± 0.021
21,TTAGATCGGG,0.989 ± 0.011
22,CTACCTCCGA,3.16 ± 0.29
23,ACTTCTAACT,1.07 ± 0.034

row,Sequence,switch fluorescence ratio
1,GCTGCTGCAC,1.01 ± 0.049
2,CGGGGATTGA,0.97 ± 0.03
3,GAAAGTGTGG,0.971 ± 0.03
4,GGGGATGTTG,0.996 ± 0.013
5,TATGCTTTGG,0.98 ± 0.03
6,AAAATTCAGG,1.02 ± 0.011
7,CTTGATGCAG,0.996 ± 0.053
8,TGCTAGCATT,1.11 ± 0.15
9,TTTATACCGA,1.067 ± 0.004
10,ATTATTAGTC,1.01 ± 0.022
11,TAGGAGGAGT,0.951 ± 0.017
12,TGGATAAGTG,0.998 ± 0.048
13,GCGGCACATA,1.09 ± 0.042
14,GTAGCAGGCG,1.13 ± 0.058
15,AAATCGGTGT,1 ± 0.037
16,GGTGTAAAAG,1.014 ± 0.0036
17,ATGTAGGGG,1 ± 0.022
18,AAATTCATGG,0.9809 ± 0.0021
19,GTGGTGTTTT,1 ± 0.015
20,CGGTTGGGTA,0.977 ± 0.014
21,TAATCGGGTT,0.996 ± 0.017
22,TTAACATGTT,0.996 ± 0.022
23,GAAGGGGAAG,0.998 ± 0.0043

row,Sequence,switch fluorescence ratio
1,TTTTGAACCA,1.05 ± 0.057
2,TTGTATTTTG,0.985 ± 0.038
3,ATTTCGTGGT,0.9759 ± 0.0096
4,TCGAAGGGCG,1.021 ± 0.0057
5,GCCTGAAAGG,0.993 ± 0.022
6,GGTGGGGGTA,1.04 ± 0.042
7,ATCGGGAGAT,0.9833 ± 0.0076
8,TGCCAAATAG,1.02 ± 0.039
9,GAGGTGTGAC,1.01 ± 0.039
10,GGGTTATTTT,0.999 ± 0.043
11,AGAGTTGAGA,1.0102 ± 0.001
12,ATCTGGAATA,1.24 ± 0.039
13,CCGGTGTGAG,1.04 ± 0.021
14,ACGGTATTGG,1.09 ± 0.044
15,GTCGGGGTAT,0.991 ± 0.012
16,AATGAAAGAT,0.998 ± 0.039
17,TCGGATTGGC,0.985 ± 0.034
18,TAAGGATGGT,0.997 ± 0.01
19,CGGATGTTTT,0.984 ± 0.02
20,GAAAGATAAG,0.985 ± 0.014
21,GGGGAAGAAT,0.9784 ± 0.0021
22,CGCTCGCCTG,1.03 ± 0.016
23,GGTCATTTAG,0.994 ± 0.031

row,Sequence,switch fluorescence ratio
1,TAATATTTTT,1 ± 0.017
2,GGGGCTGCGC,1.05 ± 0.1
3,ACGATGGTTG,0.9729 ± 0.0095
4,CTGGTCCGGA,0.948 ± 0.0035
5,ATACCTGAG,1.53 ± 0.057
6,TTAAGGGAAC,0.9966 ± 0.0052
7,GAATGTCTGC,0.99 ± 0.037
8,TGGGGCGAAA,0.997 ± 0.089
9,TTGGGGGGCT,1.01 ± 0.09
10,TTGGTTAAGT,1.01 ± 0.046
11,CCTTATTTTC,0.9984 ± 0.0059
12,AGTCGGGAGA,1.01 ± 0.015
13,ATCACGATGG,1.03 ± 0.019
14,TATAGGTTGG,1.02 ± 0.031
15,AATAAGCACA,1.2 ± 0.028
16,TCTGGGGCCG,1.02 ± 0.065
17,GATAGTGAGA,1.03 ± 0.011
18,AAGATCTCGC,0.994 ± 0.025
19,AGGGAAGGTT,0.982 ± 0.022
